The target of assay [1] is Muc1 as expressed by DS6 negative & CM1 positive cell lines (KLE, OVCAR3, SKOV3), without the CA6 glycotope (human) (UniProt P15941). Kind of assay: flow cytometry on OVCAR3 cells. (In general: A flow cytometer gives signals particle by particle.)
Assay [2] has the same target. Kind of assay: flow cytometry on KLE cells.
For assay [3] the target is unchanged. Kind of assay: flow cytometry on SKOV3 cells.
For assay [4] the target is unchanged. Kind of assay: flow cytometry on KLE cells (DS6 negative).
For assay [5] the target is unchanged. Briefly: flow cytometry on OVCAR3 cells (DS6 negative).
The target is the same in assay [6]. Briefly: flow cytometry on SKOV3 cells (DS6 negative).

Here are results for two substances from patent US20110064733A1.

Turning to CM1 antibody (Muc1 VNTR antibody), the results for the MMF (maximum mean relative fluorescence) (relative fluorescence) in assay [1], in assay [2] and in assay [3] were 192, 562 and 49.4, respectively.

On to murine anti-CA6 monoclonal antibody DS6, for which the MMF (maximum mean relative fluorescence) (relative fluorescence) in assay [4] is 27.5; in assay [5] it was 21.2; in assay [6], 17.5.
